assay: soluble on expression in E. coli; label from the status in PepcDB or PDB records

Soluble on expression in E. coli, not soluble:
MGSDKIHHHHHHMKELAIASRDLVSPDGLAGYLRFVNAQPLLRPEEERDLARRLRDHGDVDAAKDLVLSHLRFVVRVARGYRGYGLQEADLIQEGNIGLMKAVKRYDPDHGVRLVSFAVHWVKAEIHEFILRNWRIVKVATTKAQRKLFFNLRSSRSHTGWMSGEESAAMADDLGVTQAQVLEMEGRMSGYDYSLNLEPDEEREGGRAPDLADPTGSPIEQLVERDWDQQQHRALHTALSALPQRDRYIIENRWLSDDPKTLQVLGDELGVSAERVRQLEKSSMGKLRQQMLTTAAVA, MGSDKIHHHHHHMKELENYYGRLFTKYQLTAKEREIAEKVPSITKKNNCFRCGTTFKEENKLPNDAYYCRACLLLGRVRSDEKLYHFPQKDFPITKCLKWKGQLTDWQQRISDGLVANVENNRATLVHAVTGAGKTEMIYHTVASVIDKGGAVCLASPRIDVCIELYKRLQNDFSVPISLLHGESEPYFRTPLVVATTHQLLKFYQAFDLVLIDEVDAFPYADNPMLYQAADNAVKEAGVQVFLTATSTDELDKKVRTGKLSRLSLPRRFHGNPLVVPQKVWFSKFDDTLKKNRLVPKLKKAIEEQRKSGFPLLIFVPEISKGQEFTKIMKKTFPEETIGFVSSQTENRLEIVEGFRKREITVLISTTILERGVTFPCVDVFVVQANHYLYTASSLVQIAGRVGRSIERPTGLLQFYHEGSTGAIEKAIAEIKQMNKEAGYV, MGSDKIHHHHHHMKGLDYCRQKAEESRSSFLSGFRFLTQEKQDAVTVLYAFCRELDDVVDECSNPDVAQATLNWWRGDLDNAFGGAMPEHPVNQALRQVKETFKLPKYELEALIDGMQMDLVQARYGSFEELKLYCRRVAGVVGCLIARILGFSDGKTLEYADKMGLALQLTNIIRDVGEDARRGRIYLPMEEMQRFDVPASVILQCSPTGNFAELMAFQIKRARETYREAVSLLPDADKKAQKVGLVMAAVYYALLNEIDRDGAQNVLKYKIALPSPRKKRIALKTWLFGFKPRPGTPERA, MGSDKIHHHHHHMKGQSKKALTKKRIEEAALSLFREQGYDSTTVQEITAKAQVAKGTFFNYFPTKESIMRSLAEDRLHSVSVYMEQRHIQSLPILKKIRTYLSYLLEEYDSHPKLTVQIWRHVVEFEEMILSHWVVLLEEAKERGELSEDFPIHVWSHIIHSHVCYGLQMSHLAPTKAQLLAKVMPLLEESLSAIIQKRGNSAMKKLVVLGGGYGGMRILQRLLPNDLPSDWEITLVDRLPYHCLKTEYYALAAGTASDHHLRVSFPEDPRLSTRYGSVSSIDLASKTVLFEEGEPLTYDTLIIGLGCEDKYHGVPGAKEHTYSIQSMEATRRTYEALNNVRPEGVVTIVGAGLSGVELASELRESRPDLTIKLLDRGDIILSMFPRRLSNYVQNWFIDHGVDIINKSNVTKVEEGAVYNHDERIESDAIIWTAGIQPNVVVRNLDVEKDQQGRVVLTPHHHLPTDEDVFVVGDCASLPHAPSAQLAEGQAEQIVTVLKKRWNNESLPDEFPRIKLKGVLGSLGKKHGFGLMGERTLIGRVPRVLKSGVLWMYKYHSG, MGSDKIHHHHHHMKIAIEAQRIFRKEKHGMDYVALETIRELQKIDQQNEYFILVSPGDDVCLQESANMHIVTVNWPSYPLWEQIGLPLALKKIKPDLLHCTSNTAPVHGNIPLVLTLHDIIFLEKKQGKNQSMYQRLGRFYRKIIVPQILTKCKRIITVSHFECNRISHFLHIDKQLLVAVYNGYSQHFIPIRNAQAITARYIKNHPYLFFLGNTDPKKNTARVLQAYGIYLKKSSQPLPLLIADLKEEIIDEYLNREGLQEIKKMLYHPGYIPNTELPAVYSGASVFIYTSLRESFGIPILEAMACGTPVITSTTSAMPEIAGPEGILVNPFEPEEIASALLHLEENAEFYQSQTAYGLERVRRFSWENTAREILNIYKEILA, MGSDKIHHHHHHMKIAQIAPLTESVPPKLYGGTERVVSYITEALVDLGHDVTLFASGDSVTNAKLEAVWPRALRLDPGIRDRVAPHMLLMELVRRQAENFDVLHFHLDYYSFSVFKRQETPFVTTMHGRLDLPEQQPVFDTFNTAPVISISNAQRHPLPQARWLTTVYHGLPEQLYTPQPVEQKYLAFLGRISPEKRVDTAIRIAGRCGMPIRIAAKVDAADREYFERDIRPLLDLPYVEFIGEIADHQKAEFLSGAHALLFPIDWPEPFGLVMIEAMACGTPVIAFNRGSVPEVLEDGVTGFIVEDEIGAVAAVNRLHKMPRAGVRQRFEERFTSHRMAQQYVNAYQSVIRAQKRSRFKVIDTSGS, MGSDKIHHHHHHMKIAVLSGKGGTGKTLVAVNLAAAAQRSTYIDCDVEEPNGHLFFKPEILQEEEITVKIPRVEDTLCQGCRRCVDFCQFNALAYIKEKLLVFEDVCHSCGGCILLCPEKALTEQEKGIGKVQKGLSDQVRVYTGVLNIGEVSGVPIIKKLLNENKSDKNEPESDQLTFIDCPPGSACSVMESIKDADYCLLVAEPTLFGVHNLNMVHELVKIFNKPCGVVLNKSLEGENPAETFCLEKNIKILSRLPFDHELGRLNSNAEIAVRKSEPYKALFSALLETVTKEVQHETAAYS, MGSDKIHHHHHHMKIAYYLPSLQAPGGIERIVTFKANYFAEHFEGYDITIITSEQMGKAPHFPLSPKVKHIDLGVSFDLPYSQSIVSKVLKYPFRYYRFKQRLSNLLNELKPDITISTMRRELNFITKLKDGSLKIGEFHVSRYAYGAEALKRKSPIVNMIKKRWANRFVKNLSKLSRVIILTSEGAKDWPELTNISIIPNPISTPVEGKQTDILSHNAIAVGRYAPQKGFDMLIPAWSIVAQRHPDWKLHIYGEGDLKEKFTKLIDELQLNNNCLLHHTVSNIAEKYCMSSIFVLSSRYEGFGLVLAEAMSCGIPCVSFDCPHGPSNIIKDHEDGLLVEKENIKELADKICYLIENENVRIKMGHKARENVKRFLPENVMPQWKNLFESLTYSSK, MGSDKIHHHHHHMKIGILTFHDAHNYGAMLQCYALQQFLFKKGYNVEVIDYRPAFYQKQYHRHSLCPWIGKNPVRTMKSIYYNYYLFNKRCAAFSDFHNRHLYMSIPATRTNIPQSYDAYIVGSDQIWNPQLTNGFHDVYFCDFCFPKGKSRFIAYAPSMEISRLSTQEAEYLTRVLNCFDALSVRESSLIPILQPLVSQPIQQVLDPTLLLDATAWNPLIGKCPKNRPYVVLYQVRENPAVRMKAFEIAQSIGGIVVELTARIDCHYSTKYQTASPADFVTYIRYATYVVTTSFHGTAFSLIFNRPFYTFSLGDNFDSRSASLLESVNLTERLVCPDEQFEISLIDFKQANKRLKHLRKQSCDFLRQSLHERQEQ, MGSDKIHHHHHHMKIIPVFLPYAGCKKRCVFCDQIKATGQAKVPSLDDIARIIEEYSRTSNEYELGFYGGTFTGLSEEKMEEYLRFVKRFPVVKSVRVSTRPDEINERKLKILKKYGVNVIEIGVQSFLDEVLERSKRGYTSEEAEGACKLIKKNGFVLSVHLMVGLPGSDRRGEILSALRTVECGADMVRIHPTLVFEGTELHRMMEEGEYTPLNVEEAVDVCSDLVCIFEGWGTKVIRIGYHVPVELRKYVVAGPIDPSLGDRVRRTTMKKVIESLKPSRIVVPKNYLVWFEEAKVEVGDEFRFDDLSYADALFFTGKEVVERWLNG, MGSDKIHHHHHHMKILLHMCCGPCAAYPVEQLRGQGAAVTGYWFNHNIHPYQEYMRRRDTVRAYAEKVRLDVIWRDEYRLEEFLAAVAQNPDDRCFYCYFSRLDAVAAAAAAGGFDAFSSTLLYSRYQKHDAIRDCAERAAERHGVAFHYDDYRRGWQEGIRLSKELGLYRHQYCGCIYSEKERYHPREGAK, MGSDKIHHHHHHMKILVYGINYSPELTGIGKYTGEMVAWMAQEGHEVRVITAPPYYPQWKVGERYSAWRYRREEGEATVWRCPLYVPKQPSTLKRLLHLGSFALSSFFPLMAQRRWKPDRIIGVVPTLFCTPGMRLLATLSGARTVLHIQDYEVDAMLGLGMAGKGKRGSVARLATAFERSALRNVDNVSTISRSMMNKAREKGVAAEKILFFPNWSEVARFQDVNDADVTALRQQLGLPEGKKIVLYSGNIGEKQGLEKVIDAAERLRDRPLIFAIVGQGGGKARLENMARERGLANIKFLPLQPYDALPALLKMGDCHLVVQKRGAADAVLPSKLTNILAVGGNAVITAEPHTELGQLCARYPGIAVCVEPESTDALVNGISQALAMPKNNTTAREYAERTLNKENVLRQFIADIRG
